In paper PMC3458555 (Nucleic Acids Research, 2012):
Read-outs that look alike come from different tables or passages of the source. One block for each molecule: values may come before it.

Legend:
[1] = biological target: Zfp206SCAN–Zfp110SCAN ΔH1 fusion protein (not stated | mouse) (UniProt Q3URR7); assay: SEC
[2] = biological target: Zfp206SCANΔH1–Zfp110SCAN fusion protein (not stated | mouse) (UniProt Q3URR7); assay: SEC
SEC [3] = biological target: the molecule itself; assay: SEC
SEC [4] = biological target: the molecule itself; assay: SEC; remark: listed apart in the source
[5] = biological target: the molecule itself

stoichiometry N [1]: 2
Molecule: Zfp206SCAN–Zfp110SCAN ΔH1 fusion protein (from UniProt Q3URR7 36-128)

stoichiometry N [2]: 2
Molecule: Zfp206SCANΔH1–Zfp110SCAN fusion protein (from UniProt Q3URR7 36-128)

B1: Zfp206SCAN–ZNF174SCAN fusion protein (other)
chain: RPRPEVAHQLFRCFQYQEDMGPRASLGRLRELCNHWLRPALHTKKQILELLVLEQFLSVLPPHVLSRLHGQPLRDGEEVVQLLEGVPRDISHMRQGFRHFCYQEVSGPQEALSCLQQLCRQWLQPELHTKEQILELLVMEQFLVILPPEIQAQVWHRYPKSSREIVTLVEDLHR
stoichiometry N (SEC [3]): 2

B2: Zfp206SCAN (SCAN domain of Zfp206, tag-free) (domain or fragment)
chain: GRPRPEVAHQLFRCFQYQEDMGPRASLGRLRELCNHWLRPALHTKKQILELLVLEQFLSVLPPHVLSRLHGAPLRDGEEVAQLEGVPRDISHM
stoichiometry N (SEC [4]): 2

B3: MBP-Zfp206SCAN (domain or fragment)
chain: GRPRPEVAHQLFRCFQYQEDMGPRASLGRLRELCNHWLRPALHTKKQILELLVLEQFLSVLPPHVLSRLHGAPLRDGEEVAQLEGVPRDISHM
stoichiometry N [5]: 2

B4: Zfp110SCAN (SCAN domain of Zfp110) (domain or fragment, mouse, UniProt A0A0R4J249 154-247, looked up)
chain: RLTDTEASRQKFRHFQYEESAGPQKAMSQLRKLCHQWLQPNTRSKKQILELLVLEQFLNALPEKFRVWVESQHPEDCKAVVALLENMTSVSKDD
stoichiometry N (SEC [4]): 2
